According to paper PMC3212534, “Structural-Functional Characterization and Physiological Significance of Ferredoxin-NADP^+ Reductase from Xanthomonas axonopodis pv. citri” (PLoS ONE, 2011):

Columns and labels:
[1] = target: T1, Ec-FNR (Escherichia coli, UniProt P28861); experiment: UV-visible difference spectroscopy; type: binding; conditions: 0.3 mM NADP+; Kd in Table 1 is quoted from reference 49
T1 construct: gene fpr; subclass II bacterial FNR; preparation not described here
T1 sequence (P28861 2-248): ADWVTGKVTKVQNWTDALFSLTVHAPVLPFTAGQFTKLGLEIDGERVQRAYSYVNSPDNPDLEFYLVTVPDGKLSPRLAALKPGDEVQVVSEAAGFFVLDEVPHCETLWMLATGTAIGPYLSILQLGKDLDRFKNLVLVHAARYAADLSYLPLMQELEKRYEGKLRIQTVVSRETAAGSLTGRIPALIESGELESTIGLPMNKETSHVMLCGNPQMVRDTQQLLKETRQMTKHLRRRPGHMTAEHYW

[2] = target: T2, Xac-FNR (Xanthomonas citri, UniProt A0AAI7ZED9); experiment: difference absorption spectroscopy titration; type: binding; conditions: read-out: NADPH / K d
T2 construct: gene fpr; entire coding region in pET28a, N-terminal His6 tag cut with thrombin; expressed in E. coli BL21(DE3)pLysS; FAD-containing subclass I bacterial FNR
From the text: difference absorption spectroscopy titration on Xac-FNR

[3] = target: T3, pea-FNR (Lathyrus oleraceus, UniProt P10933); experiment: UV-visible difference spectroscopy; type: binding; conditions: 0.3 mM NADP+; Kd in Table 1 is quoted from reference 49
T3 construct: gene PETH; plastidic FNR; preparation not described here
T3 sequence (P10933 53-360): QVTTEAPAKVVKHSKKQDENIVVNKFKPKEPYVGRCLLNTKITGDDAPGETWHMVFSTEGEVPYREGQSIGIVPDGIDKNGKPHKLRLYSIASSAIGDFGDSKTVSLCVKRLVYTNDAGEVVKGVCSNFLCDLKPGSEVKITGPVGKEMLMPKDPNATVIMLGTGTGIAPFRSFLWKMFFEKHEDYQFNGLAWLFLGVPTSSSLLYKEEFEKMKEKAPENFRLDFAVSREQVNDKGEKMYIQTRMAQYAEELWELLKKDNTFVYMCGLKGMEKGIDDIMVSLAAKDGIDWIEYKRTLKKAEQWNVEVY

[4] = test system: NC(=O)C1=CN([C@@H]2O[C@H](COP(=O)(O)OP(=O)(O)OC[C@H]3O[C@@H](n4cnc5c(N)ncnc54)[C@H](O)[C@@H]3O)[C@@H](O)[C@H]2O)C=CC1; experiment: purified protein; conditions: 1 mM potassium ferricyanide as acceptor, 50 mM Tris-HCl pH 8.0, 30 °C
[5] = test system: NC(=O)C1=CN([C@@H]2O[C@H](COP(=O)(O)OP(=O)(O)OC[C@H]3O[C@@H](n4cnc5c(N)ncnc54)[C@H](OP(=O)(O)O)[C@@H]3O)[C@@H](O)[C@H]2O)C=CC1; experiment: purified protein; conditions: potassium ferricyanide as acceptor, 50 mM Tris-HCl pH 8.0, 30 °C

T2 sequence (A0AAI7ZED9 entry or part of it): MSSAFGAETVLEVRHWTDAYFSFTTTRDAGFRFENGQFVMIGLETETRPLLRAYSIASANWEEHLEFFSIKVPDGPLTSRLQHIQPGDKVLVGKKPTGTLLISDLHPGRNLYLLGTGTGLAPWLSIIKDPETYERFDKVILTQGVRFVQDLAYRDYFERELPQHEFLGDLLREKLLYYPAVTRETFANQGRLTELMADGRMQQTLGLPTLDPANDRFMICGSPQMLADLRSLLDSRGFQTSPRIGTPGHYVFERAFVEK

Compound	UV-visible difference spectroscopy [1]	Kd [2]	UV-visible difference spectroscopy [3]	Km [4]	kcat [4]	kcat/Km [4]	Km [5]	kcat [5]	kcat/Km [5]
NC(=O)c1ccc[n+]([C@@H]2O[C@H](COP(=O)(O)OP(=O)(O)OC[C@H]3O[C@@H](n4cnc5c(N)ncnc54)[C@H](OP(=O)(O)O)[C@@H]3O)[C@@H](O)[C@H]2O)c1 [NADP^+]	Differential UV-visible spectra elicited by the interaction between the enzymes and NADP^+	9.7 ± 0.4 µM	Differential UV-visible spectra elicited by the interaction between the enzymes and NADP^+	–	–	–	–	–	–
Xac-FNR (Xanthomonas citri subsp. citri 306)	–	–	–	3300 ± 1400 µM	3.2 ± 1.3 s⁻¹	1000 M⁻¹ s⁻¹	10.8 ± 0.5 µM	122 s⁻¹	1.13e+07 M⁻¹ s⁻¹
